Tested on: Escherichia coli TOP10
Assay: shrunken log2 fold change of peptide-encoding DNA abundance (4.5 h post-induction vs induction); higher = less antimicrobial activity (less host growth inhibition)
Settings: time post-induction: 4.5 h; library: site-saturation at positions 5, 18, 19, 20
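Also: peptides expressed intracellularly from a pBAD plasmid library in pooled LB shake-flask culture, induced with 0.3% L-arabinose, DNA abundance read by NGS, three biological replicates, DESeq2 with apeglm shrinkage.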

Sequence	shrunken log2 fold change
RRIRFRPPRLPRPRPRPQPFPRP	-0.0783
RRIRLRPPRLPRPRPRPALAPRP	0.305
RRIRIRPPRLPRPRPRPKSNPRP	-0.673
RRIRHRPPRLPRPRPRPEKLPRP	0.0208
RRIRYRPPRLPRPRPRPQNIPRP	-1.24
RRIRGRPPRLPRPRPRPAKPPRP	0.82
RRIRTRPPRLPRPRPRPDKVPRP	-0.0275
RRIRYRPPRLPRPRPRPAISPRP	-0.149
RRIRCRPPRLPRPRPRPKPFPRP	-0.0386
RRIRPRPPRLPRPRPRPGICPRP	-0.0417
RRIRMRPPRLPRPRPRPNEMPRP	0.318
RRIRVRPPRLPRPRPRPKQVPRP	-0.0801
RRIRPRPPRLPRPRPRPEDDPRP	0.413
RRIRNRPPRLPRPRPRPWMSPRP	-0.0131
RRIRWRPPRLPRPRPRPDQTPRP	-0.00176
RRIRHRPPRLPRPRPRPIGFPRP	-0.0167
RRIRRRPPRLPRPRPRPEHHPRP	0.202
RRIRMRPPRLPRPRPRPYSLPRP	-0.129
RRIRKRPPRLPRPRPRPCPNPRP	-0.0875
RRIRSRPPRLPRPRPRPQKKPRP	-0.0597
RRIRRRPPRLPRPRPRPFVHPRP	0.0512
RRIRKRPPRLPRPRPRPIPDPRP	0.2
RRIRCRPPRLPRPRPRPHESPRP	-0.123
RRIRGRPPRLPRPRPRPRYWPRP	0.248
RRIRERPPRLPRPRPRPMFMPRP	-0.468

Sequence	shrunken log2 fold change
RRIRQRPPRLPRPRPRPYRCPRP	-0.122
RRIRTRPPRLPRPRPRPWHQPRP	-0.0236
RRIRPRPPRLPRPRPRPDNCPRP	-0.197
RRIRLRPPRLPRPRPRPPARPRP	0.789
RRIRQRPPRLPRPRPRPAPCPRP	0.222
RRIRHRPPRLPRPRPRPAVWPRP	0.261
RRIRCRPPRLPRPRPRPGINPRP	-0.31
RRIRCRPPRLPRPRPRPQESPRP	0.192
RRIRNRPPRLPRPRPRPWSLPRP	-0.0288
RRIRNRPPRLPRPRPRPGMLPRP	-0.184
RRIRFRPPRLPRPRPRPYLSPRP	-1.86
RRIRMRPPRLPRPRPRPWRTPRP	0.324
RRIRFRPPRLPRPRPRPCFQPRP	-0.227
RRIRARPPRLPRPRPRPRLCPRP	0.574
RRIRYRPPRLPRPRPRPHVYPRP	-0.748
RRIRFRPPRLPRPRPRPNICPRP	-0.252
RRIRKRPPRLPRPRPRPMFPPRP	-0.187
RRIRVRPPRLPRPRPRPKPLPRP	0.196
RRIRCRPPRLPRPRPRPCRGPRP	-0.243
RRIRERPPRLPRPRPRPEFMPRP	-0.096
RRIRIRPPRLPRPRPRPEMAPRP	-0.061
RRIRPRPPRLPRPRPRPRYIPRP	-0.602
RRIRTRPPRLPRPRPRPNMAPRP	-0.155
RRIRCRPPRLPRPRPRPHYCPRP	-0.342
RRIRLRPPRLPRPRPRPATLPRP	-0.12

Sequence	shrunken log2 fold change
RRIRMRPPRLPRPRPRPWRHPRP	0.0256
RRIRYRPPRLPRPRPRPVWHPRP	-0.0131
RRIRLRPPRLPRPRPRPCLCPRP	-0.0557
RRIRERPPRLPRPRPRPSVWPRP	0.0602
RRIRARPPRLPRPRPRPQLKPRP	0.237
RRIRIRPPRLPRPRPRPTREPRP	0.255
RRIRQRPPRLPRPRPRPVILPRP	-0.0369
RRIRLRPPRLPRPRPRPWMPPRP	-0.0741
RRIRTRPPRLPRPRPRPRYAPRP	0.108
RRIRQRPPRLPRPRPRPHMGPRP	-0.512
RRIRYRPPRLPRPRPRPGGLPRP	3.02
RRIRPRPPRLPRPRPRPFFMPRP	-0.196
RRIRIRPPRLPRPRPRPVPHPRP	0.0565
RRIRNRPPRLPRPRPRPEWPPRP	0.178
RRIRRRPPRLPRPRPRPSLFPRP	0.196
RRIRQRPPRLPRPRPRPPHGPRP	1.06
RRIRVRPPRLPRPRPRPATRPRP	0.383
RRIRERPPRLPRPRPRPFSLPRP	-0.2
RRIRSRPPRLPRPRPRPDWKPRP	-0.0322
RRIRVRPPRLPRPRPRPWTVPRP	-0.782
RRIRCRPPRLPRPRPRPYPFPRP	-0.241
RRIRQRPPRLPRPRPRPHVAPRP	-0.0333
RRIRRRPPRLPRPRPRPTVWPRP	0.359
RRIRLRPPRLPRPRPRPTEFPRP	0.0447
RRIRNRPPRLPRPRPRPPTIPRP	0.244

Sequence	shrunken log2 fold change
RRIRSRPPRLPRPRPRPVITPRP	-0.0353
RRIRSRPPRLPRPRPRPHESPRP	-0.15
RRIRTRPPRLPRPRPRPWSSPRP	-0.241
RRIRWRPPRLPRPRPRPEVEPRP	-0.016
RRIRYRPPRLPRPRPRPLGHPRP	0.0209
RRIRCRPPRLPRPRPRPYNYPRP	-0.914
RRIRMRPPRLPRPRPRPRFYPRP	0.322
RRIRARPPRLPRPRPRPSLIPRP	-0.0273
RRIRTRPPRLPRPRPRPMCQPRP	-0.0075
RRIRARPPRLPRPRPRPKQRPRP	0.558
RRIRIRPPRLPRPRPRPIEPPRP	0.0377
RRIRGRPPRLPRPRPRPPTWPRP	0.466
RRIRYRPPRLPRPRPRPAFTPRP	-0.639
RRIRDRPPRLPRPRPRPFMTPRP	-0.185
RRIRGRPPRLPRPRPRPLKTPRP	0.58
RRIRSRPPRLPRPRPRPCPCPRP	-0.138
RRIRRRPPRLPRPRPRPPVWPRP	0.328
RRIRLRPPRLPRPRPRPDGEPRP	-0.00819
RRIRMRPPRLPRPRPRPLNMPRP	-0.0641
RRIRKRPPRLPRPRPRPAWCPRP	0.0965
RRIRIRPPRLPRPRPRPFDVPRP	-0.296
RRIRMRPPRLPRPRPRPQNWPRP	0.532
RRIRPRPPRLPRPRPRPCMYPRP	-0.226
RRIRHRPPRLPRPRPRPCHNPRP	-0.261
RRIRYRPPRLPRPRPRPLWQPRP	-0.499

Sequence	shrunken log2 fold change
RRIRWRPPRLPRPRPRPDDNPRP	0.174
RRIRPRPPRLPRPRPRPQCVPRP	0.14
RRIRCRPPRLPRPRPRPNKIPRP	-0.461
RRIRLRPPRLPRPRPRPGHDPRP	0.147
RRIRKRPPRLPRPRPRPAEIPRP	-0.119
RRIRYRPPRLPRPRPRPTWYPRP	-0.168
RRIRWRPPRLPRPRPRPVAMPRP	0.427
RRIRCRPPRLPRPRPRPYVEPRP	-0.942
RRIRARPPRLPRPRPRPYPFPRP	-0.63
RRIRGRPPRLPRPRPRPPPMPRP	1.19
RRIRYRPPRLPRPRPRPALVPRP	0.112
RRIRCRPPRLPRPRPRPIADPRP	-0.107
RRIRTRPPRLPRPRPRPYTHPRP	-0.338
RRIRGRPPRLPRPRPRPVTCPRP	0.146
RRIRERPPRLPRPRPRPPKFPRP	-0.0978
RRIRERPPRLPRPRPRPWKVPRP	-0.0109
RRIRVRPPRLPRPRPRPTFRPRP	0.218
RRIRHRPPRLPRPRPRPSFDPRP	-0.429
RRIRHRPPRLPRPRPRPLLQPRP	0.112
RRIRWRPPRLPRPRPRPHDNPRP	-0.114
RRIRERPPRLPRPRPRPVLEPRP	-0.0875
RRIRMRPPRLPRPRPRPSDVPRP	0.141
RRIRARPPRLPRPRPRPFIIPRP	-0.264
RRIRRRPPRLPRPRPRPAHPPRP	0.769
RRIRDRPPRLPRPRPRPNVIPRP	-0.0253

— the supplement of paper PMC9112550, “Optimization of the antimicrobial peptide Bac7 by deep mutational scanning” (BMC Biology, 2022)
